Laboratory results reported in the DeepSol protein solubility set.

experiment: soluble on expression in E. coli; label from the status in PepcDB or PDB records

Row | Sequence | soluble on expression in E. coli
1 | MSAPDLFVAHFREAVPYIRQMRGKTLVAGIDDRLLEGDTLNKLAADIGLLSQLGIRLVLIHGARHFLDRHAAAQGRTPHYCRGLRVTDETSLEQAQQFAGTVRSRFEAALCGSVSGFARAPSVPLVSGNFLTARPIGVIDGTDMEYAGVIRKTDTAALRFQLDAGNIVWLPPLGHSYSGKTFYLDMLQTAASAAVSLQAEKLVYLTLSDGISRPDGTLAETLSAQEAQSLAEHAGGETRRLISSAVAALEGGVHRVQILNGAADGSLLQELFTRNGIGTSIAKEAFVSIRQAHSGDIPHIAALIRPLEEQGILLHRSREYLENHISEFSILEHDGNLYGCAALKTFAEADCGEIACLAVSPQAQDGGYGERLLAHIIDKARGIGISRLFALSTNTGEWFAERGFQTASEDELPETRRKDYRSNGRNSHILVRRLHR | not soluble
2 | MGSSHHHHHHGKTIFVIVPTNEEQVAFLEALAKQDELNFDWQNPPTEPGQPVVILIPSDMVEWFLEMLKAKGIPFTVYVEEGGSENLYFQGGGGGGRSSRHLCGLPTVRTVAATGWRYHRHGAPEKVLQYERYRVPFDRTSGQVVVKMLAAPVHRHDKNLIEGHGGPIAVPKACLPHVAGVEGVGVVEEVGSNAKLALKEGDMVWINNPSVGSWATHIVTDAENLDVVPCRADVDIEYLASLSLFHTAYHLTHDFVNIQPNDVVLQTGASSSIAQICQGYLRAKGAKLFQTMQLGRTEHAHLLAFFKLRGAFAVVPYNYARTNYMRRLLSDVPPPKLLLNHTCGGYASNLVNLLGDNGVCVTYGNTSHQPMQISNMDAIARGVQFKGFFLPSWIRRHTREARMRVHQNVVESMTITQGHGIFRAQRFKMDGDSAFAFSNAWDAPLASRKAVLRIVGEYGEWRRPRSDQAGWNIGRAVWEDMLQQMWESAGTTENPQSMKYYTPFDDIHSSFYDAKQSKELGHRDVFFRRPNAPRHNAAEQQQ | not soluble
3 | ETDETLGEREIRRVLARSGEEGNIDASEVDMIERVFDLDDTVVREVMVPRPDVVSVPADATMSDIRAVVLDEGHTRYPVVDADDSDQIVGFIDVKDVLRAGEEGNENTTAGDIAHEIPVVPETTAINDLLLQFRQDRRQMAAVIDEWGSLEGIATIEDVVEAVVGDLRDEFDVDGREHAIRKQSDGSYDADGGV | not soluble
4 | RDLKSEVKKRNIQLQFDYPEILSKILLYSNAGLSIKSSIERIVRQYEDEKKKNPKEYHYAYEELKMATVKMKSGVSEINAINQYGERCGLHNYIKLANIIEQNIRRGTGELSFALENELNRALVERKNTALKRGSEISTK | not soluble
5 | MLDKLRSRLVHAGPSLMSVPVKLTPFALKRQVLEQVLSWQFRQALADGELEFLEGRWLSIHVRDIDLKWYTTVENEKLIVSQQADADVSFSADASDLLMIAARKQDPDTLFFQRRLVIEGDTELGLYVKNLMDAIELEQMPKALRVMLLQLADFVEAGMKNSPETKQTSVGEPC | not soluble
6 | MASRLLRGVGALAAQALRAHGPRGAAVTRSMASGGGVPTDEEQATGLEREIMIAAQKGLDPYNMLPPKAASGTKEDPNLVPSISNKRIVGCICEEDNCTVIWFWLHKGESQRCPNCGTHYKLVPHQMAH | soluble
7 | MYNLHREKIFMSYNQNKQYLEDNPEIQEKIELYGLNLLNEVISDNEEEIRADYNEANFLHPFWMNYPPLDRGKMPKGDQIPWIEVGEKAVGSKLTRLVSQREDITVREIGLPTGPDERYLLTSPTIYSLTNGFTDSIMMFVDIKSVGPRDSDYDLVLSPNQVSGNGDWAQLEGGIQNNQQTIQGPRSSQIFLPTIPPLYILSDGTIAPVVHLFIKPIYAMRSLTKGDTGQSLYKIKLASVPNGLGLFCNPGYAFDSAYKFLFRPGKDDRTKSLLQKRVRVDLRVLDKIGPRVMTIDMDK | soluble
8 | GMEQATRTIYSEYAAYPETQGIIAVEKRQPRDSLTDQFDVLLLVITRDPSVEWTVKHYRLNTLRVSLHLVHEQVLSRWLILNANRRAVHWVSEGTIIFERNDYLTDLKKQLRNFPETERCLQMSLSFAKLLRRFQDGRNLFSRGNYYDAYTHVHHALHHLARLSVLEKGAHPEVVVWEQARLDDPDVYKLYEQLLLSEETLEQRIHLALIGLEHLLQSKVLSGGKYLFEVMRERDRPWTMHELMEESRLTELKVDLGSLVDFFIRKGLIRISYQRTKGLGVELVTYEPVV | soluble
9 | MIRLLTLLALLLPVPGWAGCRQALALGLDVSGSVDGREYRLQLDGLAAALLAPEVQARLLAMPGHPIRLAVYEWSEPGFQRLILPWHQIDTAADLETVAATLRTTRRAAAPPGTAIGPAMHHGAALLAQQPDCWKRTLDLSGDGKHNMGPHPRVVKAALEGSGLTVNALVIGADSTTFTDLRQTQIGELSAYYGAWVILGPDAFVEVALGYEDYQAAMERKLRRELEGLVLSALPTRAATQLHAPVLPWPVLPQAAALEHHHHHH | not soluble
10 | MKIQLHKWPKSVIDRLDLVFLDAPFPCQGKSDVEGIFDPPYYEWFQFNKEFTEYTNFEKCLEYLEDRMIKLGPFDGLIGFSQGAILSGGLPGLQAKGIAFQKVPKIKFVIIIGGAKLKSAKLAENAYSSSLETLSLHFLGETDFLKPYGTQLIESYKNPVVVHHPKGHTVPRLDEKSLEKVTAFIDTLEHLVMEEDKNGEENTSKPTK | soluble
11 | MGSDKIHHHHHHMTPSDTNAPVDRLKIGFVLARSFTLSAFALFVDTLRLASDEFDRSGRVLADWDVLGSTRHLITSSCGVQVAPTSDLVEDPSQFQFIVVVGGLLNNEQPIDRETAAFLKKAAAKNVKLIGVCTGSFILAELGLMKSHRTCVSWLHYNAFRERFPDLQVRSDRIFNLDRTRGSCVGGSSAADMAALIVRRHISKDAERNALEVLHIEKARSALAIQTRKPLSIECNDPRIRATLIMMEQHIEGNLPIQDLAAAVGLSRRQLERLFISETKSSPAMIYRRVRLERAKHLLVQSKAPLVEIALEVGFGNASHFAKVFAQTFGQSPTGLRTAIRATL | not soluble
12 | MGSDKIHHHHHHMKFPGQRKSKHYFPVKNRDPLLAQLTLQPQHISTHISGIDQTLVDIEAKVGDDLLSRYALPKGNSTLIDDEKAHQLYTELKSSELISDEFAGGTIGNTVHNYSILADDRSVLFGVMSNHIEVGSYAYRYLCNTSSKVDLNFLQPVDGPIGRCFTLISECGERTFAISKGSMDKLTPEYIDQEIVQTSSALVLTAYLMRASGGDKITDAALKAIEYAKAADVPVVLTLGTRFLIEEDPQWWIDFIKENVTILAMNEDEGEALTGFKDPLSASNAALEWCDMVLTTAGPLGLYTAGYTEDSEKRETSHTLLPGAIPEFNRYEFSRPKLKRDCQTPIKVFAHISPYMGGPEIIRNTNGAGDGALAALLHDLASNTYHKANVPGSSKHKRDGLCYSSFSQICKYANRVAYEVLAQHSPRLSRGLPEREDSLEEAYWER | not soluble
13 | MLSVAGHRFASLATTPVLRMGLARCFSSVTGPFQCPPLPYVKNALEPHMSAETLTYHHDKHHQTYVDTLNSIAAENSTIASKTLEQIIKTETGKPFNQAAQVYNHTFFFNNLAPNGGGEPTGKIAELITRDFGSFEKFKEDFSAAAVGHFGSGWVWLIADDGKLKIVQGHDAGNPIRESKTPLMNIDVWEHAYYIDYRNARAQYVKNYWNLVNWDFVNDNVAKAGI | soluble
14 | MNNNENQTLISGGTVVTPTTEIEKGTVAFSNGKIVSVEAESHDNPDIDATGKYVLPGLVDLHGDDIERHLFPRAEERVDTTIALDRCDIANASAGVTTKYHAISFEDVPDDNRSIELARRLAEQIRNFNYETGARVDNRLHMRCELTNEASVDAVSEEIKSGGDLVSLVTHVPGTGQFTGENTLAQRYDRSDGELETGLQSLKTRRSGVPEAELLARAREVTELASNRNMTVASHDDETVASVDNAAAIGVDISEYPLSHRVAQRATELNLTVAMGAPNVVRGGSLWDGPDASQAIKDGVVDILCSDFRPQSLLSSVFIENDEPLKDRVFRVSTAPAAAAGLYDRGRLECGARADIIIVDPDPSPSIARTYVAGDQVYCSA | not soluble
15 | MGSDKIHHHHHHMSTLRLLISDSYDPWFNLAVEECIFRQMPATQRVLFLWRNADTVVIGRAQNPWKECNTRRMEEDNVRLARRSSGGGAVFHDLGNTCFTFMAGKPEYDKTISTSIVLNALNALGVSAEASGRNDLVVKTVEGDRKVSGSAYRETKDRGFHHGTLLLNADLSRLANYLNPDKKKLAAKGITSVRSRVTNLTELLPGITHEQVCEAITEAFFAHYGERVEAEIISPNKTPDLPNFAETFARQSSWEWNFGQAPAFSHLLDERFTWGGVELHFDVEKGHITRAQVFTDSLNPAPLEALAGRLQGCLYRADMLQQECEALLVDFPEQEKELRELSAWMAGAVR | not soluble
16 | MIDQFKFLNPQALISIFGKIPKFEESELLDVRLKRDGPTLVIQLMTKENVENKPKRWNKWDVIYVEISFFTIHNLTIKGLGTENIIDYFEINTIEEEGLLKIKCKNQMLVECSFEWAKVEGVTPGLIGLP | not soluble
17 | MSYLDTATDLPNQTLFLEYLNIALSNARRHHAQVGVLLCQINNWSDLKRKRGDAVANAFLQEAGQKLKSNLRNGDIVSRWDKDEFIFLVSKVQDTSSLLGIAQRLMKPVLAPVTAGGRPFQPEITYGVALYPVDGEQVNDLIGHIRENLQQLLPQPTNPGSGLEHHHHHH | soluble
18 | MGSDKIHHHHHHMKRKIIQQLKLWKDNPARKPLILLGARQVGKTWVMKHFGQTEFENVAYINCDVEPLAKELFAADYSIPRILLTLQAITGTKIEAGKTLIVFDELQEVERGLHSLKYFQENAPEYHVMAAGSLLGITLGKGQSFPVGKVNVMHLYPMDFEEFLMAAGETDLCDLLHQPDWEILKILSLKYVDLLRQYYYVGGMPEVVDCFFQHQNLQEVRDKQTEILDAYRRDISKHTTATESIRIGQVLQSLPSQLAKENKKFIYNVLKKGARATEYELAIQWLMDAGLVHKVSRIKELQMPVKFYEDLGAFKLFLLDCGLLGCMTEAPASQMLVGDNVFKEFKGAFTEQFVLQQLVAQGFSPYYWSSDKTPAEIDFVVQTEHRVIPVEVKAEENVRARSMSEYIKNHPDYQLKGLRISMMGYQDQEWMENIPLFAITKFFG | not soluble
19 | MFFLEHGKVRTFLTPTLRCPMEKTTTQELLAQAEKICAQRNVRLTPQRLEVLRLMSLQDGAISAYDLLDLLREAEPQAKPPTVYRALDFLLEQGFVHKVESTNSYVLCHLFDQPTHTSAMFICDRCGAVKEECAEGVEDIMHTLAAKMGFALRHNVIEAHGLCAACVEVEACRHPEQCQHDHSVQVKKKPR | not soluble
20 | MSRLGYVMTKASAKNFKVYINGSARGYRNIIINGAKSWNPSPYLNTVTMGNDVKPNFTVSSSNTNKGSVLAVCNTTYYKSNKLIVKNEITLYKGFRSLSNNHKIETVAHEFGHGFGLGHVKTRNAIMLDKGFINKTKPQKDDFNGIKALYKLEHHHHHH | soluble
21 | MEQQRDFDSALAWHRKAKCAGKAGSADVLPGHDKDANAARVVELCAMCADCPVFEQCGREAIAEPFLTLGVVRAGIPDTTQSKSKQKKLLQQVIDEGVPPPVALIMALKDRKGYEGALVGLAGLYEAYRGVYV | not soluble
22 | MRVLALSAVFLVASIIGMPAVAKEWQENKSWNAHFTEHKSQGVVVLWNENKQQGFTNNLKRANQAFLPASTFKIPNSLIALDLGVVKDEHQVFKWDGQTRDIATWNRDHNLITAMKYSVVPVYQEFARQIGEARMSKMLHAFDYGNEDISGNVDSFWLDGGIRISATEQISFLRKLYHNKLHVSERSQRIVKQAMLTEANGDYIIRAKTGYSTRIEPKIGWWVGWVELDDNVWFFAMNMDMPTSDGLGLRQAITKEVLKQEKIIP | soluble
23 | IDFRGIEKQGGRVLIDVSDTGIPIDVTQVGKEIVVNFLNTKIPLNLMKRYDVSDFHSPVQIITMQQEGKKVRMTILSKGDYGHFVYQVNKQFMVDVFPLTAEEIR | not soluble
